The results in this text go back to article PMC11633101.

The test deals with bovine NECTIN1 with 6×his tag, purified from CHO cells (bovine). Description: SPR; Biacore 8K, CM5 chip, 25°C, single-cycle mode, PBS; NECTIN1 and CD46 captured on the chip, serial dilutions of BVDV E2 injected; regeneration with glycine pH 2.5.

Broadly, the Kd is the equilibrium constant for the complex coming apart. Low readings indicate higher affinity, high ones lower affinity. Consider “BVDV E2 protein with 6×his tag, purified from 293F cells (from UniProt P19711 693-1066) (natural protein)”, for which the Kd stood at 3.47 pM.
